# Results from US9433687B2, “Anti-Notch3 antibodies and antibody-drug conjugates” (Pfizer Inc., priority 2012, dated 2016).
# B1: hu28 VH1.0/VL1.0: humanized r28 variant VH1.0/VL1.0, anti-Notch3 antibody (VH SEQ ID NO: 13, VL SEQ ID NO: 25) (antibody, V domains shown)
# VH: EVQLVESGGGLVQPGGSLRLSCAASGFTFRDYGMTWVRQAPGKGLEWVAYISSGSNYIYYAEAVKGRFTISRDNAKNSLYLQMNSLRAEDTAVYYCARRGPFVLDAWGQGTLVTVSS
# VL: DIQMTQSPSSLSASVGDRVTITCKASQSINRYLHWYQQKPGKAPKLLIYNANGLQTGVPSRFSGSGSGTDFTLTISSLQPEDFATYYCLQHNTWPDTFGGGTKVEIK
# Columns and labels:
# [1] = target: T1, cell surface Notch3 on OVCAR3 cells (Homo sapiens, UniProt Q9UM47); experiment: Cell-based ELISA, OVCAR3 cells; conditions: Table 29; LB = lacked binding
# T1 construct: Notch3 endogenously expressing cells MDA-MB-468, HCC2429 and OVCAR3; endogenous in cells; host or cells: OVCAR3
# [2] = target: T2, cell surface Notch3 on HCC2429 cells (Homo sapiens, UniProt Q9UM47); experiment: Cell-based ELISA, HCC2429 cells; conditions: Table 29; LB = lacked binding
# T2 construct: endogenous Notch3 expressing cell lines, HCC2429 and MDA-MB-468; endogenous in cells; host or cells: HCC2429
# Method: Unconjugated anti-Notch3 antibodies, anti-Notch3 ADCs and a negative control antibody (huNeg8.8) were screened for cell surface binding activity to Notch3 expressing cell lines in a cell-based ELISA. Over-expressing Notch3 cell line, U2OS/hNotch3, and endogenous Notch3 expressing cell lines, HCC2429 and MDA-MB-468, were plated at 50,000, 200,000 and 100,000 cells/well, respectively, in 96 well plates (white opaque, BD/VWR) the day before ELISA assay. On the day of the ELISA, culture media was removed from wells and serially diluted (1:3 in DPBS with calcium chloride and magnesium chloride (Ca/Mg) and 1% BSA) antibody and ADC solutions were applied to the plate. Plates were incubated at room temperature for 2 hours before washed with DPBS with Ca/Mg and 1% BSA. HRP-conjugated secondary antibody was then applied and incubated with cells for 1 hour. Plates were washed with DPBS with Ca/Mg and 1% BSA before being developed with Pico-Chemiluminescent developing kit (Thermal Scientific), and chemiluminescence measurements were performed per manufacturer's instructions. Data plotting and analyses were performed with Microsoft Excel and Graphpad-Prism software.
# Unconjugated cysteine mutant humanized anti-Notch3 antibodies were screened for cell surface binding activity to Notch3 expressing cell lines in a cell-based ELISA, as described in previous Examples. […]
# [3] = system: HCC2429 or MDA-MB-468 cells; experiment: Co-localization with LAMP1, indirect immunofluorescence; type: cell-based, human; conditions: 10 μg/ml; after incubation at 37° C. for 90 minutes
# Method: HCC2429 or MDA-MB-468 cells were cultured in a Lab Tec II 4 chambered coverglass with cover #1.5 borosilicate sterile slides (Thermo Fisher Scientific Inc.). For binding and internalization assays, cells were washed twice with HBSS++ and unconjugated anti-Notch3 antibodies, hu75 and hu28, were added to the cells at a concentration 10 μg/ml in 2% bovine serum albumin (BSA)/HBSS++ for 25 minutes on ice. To visual membrane binding at time 0 minutes, control cells were washed with ice cold HBSS++ and then fixed in 4% paraformaldehyde in PBS for 10 minutes. For antibody internalization, cells were washed twice with ice cold HBSS++ and then pre-warmed complete growth media was added to the cells and placed inside a humidified 37° C., 5% CO2 incubator. Cells were removed from the incubator, washed and fixed as before at multiple time points from 5 minutes to 18 hours. Cells were then washed 3 times with PBS, and permeabilized for 10 minutes with 0.3% Triton X-100 in PBS. Cells were washed 3 times with PBS for 5 minutes each time and then blocked for 1 hour in 3% BSA/PBS. Anti-LAMP-1 mouse monoclonal antibody (H4A3, Abcam) was added at 1:100 in 2% BSA/PBS for overnight incubation at 4° C. Cells were washed twice with PBS for 5 minutes each and then secondary goat anti-human Alexa Fluor 488 and goat anti-mouse Alexa Fluor 555 (Life technologies) were added for 45 minutes in the dark. […]
# MDA-MB-468/hNotch3 = target: T3, MDA-MB-468/hNotch3 (Homo sapiens, UniProt Q9UM47); experiment: In vitro cytotoxicity (MTS), MDA-MB-468/hNotch3; type: cell-based; conditions: MDAMB468/hNotch3; data not shown
# T3 construct: cell lines engineered to over-express full length human Notch3 protein: MDA-MB-468/hNotch3 and U2OS/hNotch3; expressed in transfected cells; host or cells: MDA-MB-468
# Method: The effects of anti-Notch3 ADCs were assessed on 1) cell lines endogenously expressing Notch3 protein: HCC2429 (lung cancer), OVCAR3 (ovarian cancer) and MDA-MB-468 (breast cancer), 2) cell lines engineered to over-express full length human Notch3 protein: MDA-MB-468/hNotch3 and U2OS/hNotch3, and 3) a negative control cell line (SW900) using an MTS cellular viability indicator (Promega, Madison, Wis.). These cell lines were cultured with increasing concentrations of anti-Notch3 ADCs comprising rat-human chimeric anti-Notch3 antibodies, ch28 and ch75, and humanized anti-Notch3 antibodies, hu28 and hu75, conjugated to various linker-payload combinations of the present invention. As a specificity control for the anti-Notch3-ADCs, non-targeted control-ADCs (huNeg8.8-ADCs or ch2H6-ADCs) were also tested on the same cell lines. After four days, viability of each culture was assessed. IC50 values were calculated by logistic non-linear regression, model #203 with XL fit v4.2 (IDBS, Guildford, Surry, UK) and presented as ng Ab/mL. The drug antibody ratio (DAR) is also provided.
# MDA-MB-468 = target: T4, MDA-MB-468 (Homo sapiens, UniProt Q9UM47); experiment: Flow cytometry (FACS) binding, MDA-MB-468; conditions: 4 μg/mL antibody
# T4 construct: endogenous Notch3 expressing cell lines, HCC2429 and MDA-MB-468; endogenous in cells; host or cells: MDA-MB-468
# Method: Unconjugated anti-Notch3 antibodies, hu28 and hu75, were examined for cell surface binding activity to Notch3 expressing cell lines by flow cytometry. Fluorescence activated cell sorting (FACS) analysis was conducted according to standard procedures. Cells were rinsed in HBSS with calcium chloride and magnesium chloride (herein termed HBSS++), harvested using trypsin without EDTA and neutralized with medium containing FBS. Cells were incubated on ice for 30 minutes with 4 μg/mL anti-Notch3 antibodies, hu28 and hu75, in HBSS++containing 3% HICS (heat-inactivated calf serum). Cells were washed three times with cold HBSS++, 3% HICS buffer. Cells were incubated in allophycocyanin-conjugated AffiniPure F(ab′)2 fragment goat anti-human IgG, Fc fragment secondary antibody (Jackson ImmunoResearch Laboratories, Inc., West Grove, Pa.) at 10 μg/mL for 30 minutes on ice in the dark. Cells were washed once with cold HBSS++/3% HICS buffer. Cells were resuspended in HBSS-++/3% HICS, 25 mM HEPES, 1 mM MgCl2 and 25 μg/ml DNaseI. 7-AAD (7-Amino-Actinomycin D) was added for exclusion of nonviable cells. Live cells were analyzed on a BD FACSCalibur flow cytometer (BD Biosciences, San Jose, Calif.). Mean fluorescence intensity (MFI) from channel FL-4 was calculated with FlowJo flow cytometry analysis software (Ashland, Oreg.).
# T3 sequence (Q9UM47 40-2321): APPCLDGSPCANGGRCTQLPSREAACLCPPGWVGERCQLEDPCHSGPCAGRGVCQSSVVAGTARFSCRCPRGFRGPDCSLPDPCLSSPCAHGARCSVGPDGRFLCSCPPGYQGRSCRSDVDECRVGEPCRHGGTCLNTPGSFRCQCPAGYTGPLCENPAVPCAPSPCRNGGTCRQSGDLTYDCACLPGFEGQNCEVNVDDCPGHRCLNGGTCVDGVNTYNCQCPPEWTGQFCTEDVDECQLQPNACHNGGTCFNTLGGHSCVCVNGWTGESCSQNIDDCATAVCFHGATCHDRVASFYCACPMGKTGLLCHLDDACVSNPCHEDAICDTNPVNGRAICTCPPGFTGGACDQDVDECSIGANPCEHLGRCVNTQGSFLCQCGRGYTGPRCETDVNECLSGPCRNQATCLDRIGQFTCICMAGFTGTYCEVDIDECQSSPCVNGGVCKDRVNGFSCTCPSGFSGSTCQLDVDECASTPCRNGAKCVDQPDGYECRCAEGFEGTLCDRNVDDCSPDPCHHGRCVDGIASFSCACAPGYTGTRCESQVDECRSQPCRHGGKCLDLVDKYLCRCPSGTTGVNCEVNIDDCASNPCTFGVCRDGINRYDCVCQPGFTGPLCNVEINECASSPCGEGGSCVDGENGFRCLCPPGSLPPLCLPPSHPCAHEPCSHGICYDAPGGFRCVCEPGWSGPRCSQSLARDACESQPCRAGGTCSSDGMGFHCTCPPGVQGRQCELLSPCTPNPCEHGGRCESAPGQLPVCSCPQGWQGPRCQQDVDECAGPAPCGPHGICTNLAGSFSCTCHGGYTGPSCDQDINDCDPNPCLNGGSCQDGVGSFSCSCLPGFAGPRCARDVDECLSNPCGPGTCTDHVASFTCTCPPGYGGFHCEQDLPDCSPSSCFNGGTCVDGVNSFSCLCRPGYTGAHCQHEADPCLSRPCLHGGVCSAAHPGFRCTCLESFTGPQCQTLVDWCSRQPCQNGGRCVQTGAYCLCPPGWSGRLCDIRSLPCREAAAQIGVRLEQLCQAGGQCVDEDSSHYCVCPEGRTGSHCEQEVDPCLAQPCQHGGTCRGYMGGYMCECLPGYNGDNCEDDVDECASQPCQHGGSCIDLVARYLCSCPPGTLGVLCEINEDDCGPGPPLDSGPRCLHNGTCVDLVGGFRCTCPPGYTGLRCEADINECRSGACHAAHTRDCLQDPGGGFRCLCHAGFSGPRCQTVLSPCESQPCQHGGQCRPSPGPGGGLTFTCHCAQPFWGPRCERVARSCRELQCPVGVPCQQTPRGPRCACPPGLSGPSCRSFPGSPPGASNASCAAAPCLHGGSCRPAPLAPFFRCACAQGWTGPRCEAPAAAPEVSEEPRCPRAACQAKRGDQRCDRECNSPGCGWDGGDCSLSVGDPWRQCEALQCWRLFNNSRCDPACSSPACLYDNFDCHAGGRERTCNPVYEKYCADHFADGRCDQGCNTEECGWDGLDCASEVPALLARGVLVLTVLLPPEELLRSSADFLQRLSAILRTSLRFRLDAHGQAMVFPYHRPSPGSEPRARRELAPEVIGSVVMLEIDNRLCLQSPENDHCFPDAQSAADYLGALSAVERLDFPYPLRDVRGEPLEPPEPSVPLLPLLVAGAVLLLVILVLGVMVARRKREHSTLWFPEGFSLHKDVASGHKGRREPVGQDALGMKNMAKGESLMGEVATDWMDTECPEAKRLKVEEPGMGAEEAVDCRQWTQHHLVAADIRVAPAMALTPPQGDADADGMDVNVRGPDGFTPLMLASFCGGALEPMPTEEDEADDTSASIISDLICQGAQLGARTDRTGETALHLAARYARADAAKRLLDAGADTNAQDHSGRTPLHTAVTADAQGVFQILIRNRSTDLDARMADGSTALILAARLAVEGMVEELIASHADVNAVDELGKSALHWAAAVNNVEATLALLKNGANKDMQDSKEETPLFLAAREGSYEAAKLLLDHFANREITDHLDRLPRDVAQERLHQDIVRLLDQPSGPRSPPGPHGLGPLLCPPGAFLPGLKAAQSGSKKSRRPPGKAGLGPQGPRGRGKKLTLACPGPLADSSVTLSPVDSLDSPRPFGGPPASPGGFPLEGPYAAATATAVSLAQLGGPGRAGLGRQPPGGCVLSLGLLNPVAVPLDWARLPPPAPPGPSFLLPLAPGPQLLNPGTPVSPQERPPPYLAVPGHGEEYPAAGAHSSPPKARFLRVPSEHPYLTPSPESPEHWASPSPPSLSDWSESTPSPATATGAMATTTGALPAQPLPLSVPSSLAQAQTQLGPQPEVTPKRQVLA
# T1 sequence (Q9UM47 40-2321): as above
# T4 sequence (Q9UM47 40-2321): as above
# T2 sequence (Q9UM47 40-2321): as above
molecule,measurement,setting,value
B1,EC50,[1],0.46 nM
same,EC50,[2],0.1 nM
same,co-localization with LAMP1 after internalization,[3],co-localized with anti-LAMP1 antibodies
same,effect of unconjugated antibody on viability,MDA-MB-468/hNotch3,did not affect the viability
same,MFI,MDA-MB-468,557
